Consider six molecules from patent publication US20260056186A1 (JIANGSU HENGRUI PHARMACEUTICALS, published 2026).

For orientation: EC50 means the concentration giving half of the maximal effect. A high value points to a less potent agent. As usually defined, the IC50 is the concentration that inhibits the measured activity by half. A word on the EC50 (read off the curve): it is the concentration needed to bring the measured effect to its halfway point. A higher EC50 (read off the curve) goes with weaker potency.

Test [1] deals with T1, APRIL (Acro Biosystems, Cat: APL-H52D1) (UniProt O75888 115-250, limits assumed).
T1 construct: also called ARPIL
T1 sequence (looked up): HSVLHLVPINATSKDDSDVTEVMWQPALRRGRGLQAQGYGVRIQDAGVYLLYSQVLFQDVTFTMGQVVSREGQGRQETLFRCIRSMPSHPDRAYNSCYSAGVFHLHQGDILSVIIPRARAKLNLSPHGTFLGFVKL
Put plainly: ELISA, APRIL coated at 1 ug/mL, anti-human Fc-HRP, OD450. As for the experimental part: (§1) The capabilities of TACI-BCMA fusion proteins (B575701, B575702, B575703, and B575704) to bind to BAFF and APRIL were assessed by ELISA as follows: BAFF (PeproTech, Cat: 310-13) or ARPIL (Acro Biosystems, Cat: APL-H52D1) was diluted to 1 μg/mL with PBS, and a 96-well plate (Costar, Cat: 3590) was coated with the dilution overnight at 4° C. The plate was washed with PBST and blocked with Blocking Buffer (PBST containing 1% BSA) at 37° C. for 1 h. The plate was tapped. The test antibodies were diluted with Blocking Buffer. Incubation was performed at 37° C. for 1.5 h. The plate was washed with PBST. An HRP-mouse anti-human Fc antibody (GenScript, Cat: A01854-200) was diluted with Blocking Buffer. Incubation was performed at 37° C. for 40 min. The plate was washed with PBST. 100 μL of TMB substrate solution (Biopanda, Cat: TMB-S-003) was added, and color development was performed at 37° C. for 3 min. 100 μL of ELISA stop solution (Solarbio, Cat: C1058) was added. OD450 was measured.
The capabilities of the 4 fusion proteins to bind to APRIL were all stronger than that of telitacicept, and their EC₅₀ values decreased to ¼ to ⅓ of that of telitacicept.
A general note: An ELISA detects its analyte on a solid surface through an enzyme-linked reagent.

Test [2] addresses T2, BAFF (PeproTech, Cat: 310-13) (UniProt Q9Y275 134-285). The test is described as follows: ELISA, BAFF coated at 1 ug/mL, anti-human Fc-HRP, OD450. As for the experimental part:
as §1
(§2) The capability of B575702 to bind to BAFF was consistent with that of B575704, and their EC₅₀ values decreased to ¼ of that of telitacicept. The capability of B575701 to bind to BAFF was consistent with that of B575703, and their EC₅₀ values decreased to ½ of that of telitacicept.

The target in test [3] is T2, BAFF (PeproTech, Cat: 310-13). The test is described as follows: ELISA, BAFF coated; reference telitacicept. As for the experimental part: as §1, §2
Test [4] addresses T3, BAFF (Sino biological, 10056-HNCH) (UniProt Q9Y275 134-285, biotinylated in the blocking ELISA (site not stated)).
T3 construct: also called BLyS
Put plainly: competition ELISA: fusion protein pre-mixed with biotinylated BAFF, added to coated BAFF-R. As for the experimental part: The above TACI-Fc fusion proteins' function of blocking the binding of BAFF to BAFF-R was further assessed as follows: The receptor protein was diluted with a pH 7.4 PBS (BasalMedia, B320) buffer to 2 μg/mL, and the resulting dilution was added to a 96-well microplate (Corning, 3590) at 100 μL/well. The plate was incubated overnight at 4° C. After the liquid was discarded, 1% Casein blocking solution (Thermo, 37528) was added at 200 μL/well for blocking, and the plate was incubated at 37° C. for 2 h. After the blocking, the blocking solution was discarded, and the plate was washed 3 times with a PBST buffer (pH 7.4 PBS containing 0.1% tween-20) and set aside for later use. A biotinylated ligand protein at a fixed concentration was mixed with a serially diluted antibody or fusion protein, and the mixture was pre-incubated at 37° C. for 30 min and then added to the blocked microplate. The plate was incubated at 37° C. for 1.5 h. After the incubation, the plate was washed 3 times with PBST, and streptavidin-HRP (Invitrogen, 434323, diluted in a 1:4000 ratio) was added at 100 μL/well. The plate was incubated at 37° C. for 1 h. The supernatant was removed. After the plate was washed 3 times with PBST, the chromogenic substrate TMB (KPL, 5120-0077) was added at 100 μL/well. The plate was incubated at room temperature for 10-15 min, and 1 M H₂SO₄ was added at 50 μL/well to stop the reaction. The absorbance at 450 nm was measured using a microplate reader. Curves for the inhibition of the binding of the ligand to the receptor were fitted using software, and IC₅₀ values were calculated. The sources of the ligand and the receptor protein used are as follows: BAFF (Sino biological, 10056-HNCH) and BAFF-R (Sino biological, 16079-H02H).
(§3) In addition, the BAFF binding activity of the constructed TACI-Fc fusion proteins was assessed, and the TACI-Fc fusion proteins' functional activity of blocking the binding of BAFF to BAFF-R was assessed (see Example 1 for the experimental method).

The target in test [5] is T3, BAFF (Sino biological, 10056-HNCH). Put plainly: ELISA, BAFF coated at 1 ug/mL, anti-human IgG-HRP. As for the experimental part: as §3
The BAFF binding activity of the TACI-Fc fusion proteins was assessed as follows: BAFF (Sino biological, 10056-HNCH) protein was diluted with a pH 7.4 PBS (BasalMedia, B320) buffer to 1 μg/mL, and the resulting dilution was added to a 96-well microplate (Corning, 3590) at 100 μL/well. The plate was incubated overnight at 4° C. After the liquid was discarded, 5% skim milk (BD, 232100), diluted with PBS, was added at 300 μL/well for blocking, and the plate was incubated at 37° C. for 2 h. After the blocking, the blocking solution was discarded, and the plate was washed 3 times with a PBST buffer (pH 7.4 PBS containing 0.10% tween-20). Serially diluted test antibody or fusion protein solutions were added at 100 μL/well, and the plate was incubated at 37° C. for 1 h. […] The plate was incubated at 37° C. for 1 h. After the plate was washed 3 times with PBST, the chromogenic substrate TMB (KPL, 5120-0077) was added at 100 μL/well. The plate was incubated at room temperature for 10-15 min, and 1 M H₂SO₄ was added at 50 μL/well to stop the reaction. The absorbance at 450 nm was measured using a microplate reader. Curves for the binding of the antibodies to the antigen were fitted using software, and EC₅₀ values were calculated.

In test [6] the target is T2, BAFF (PeproTech, Cat: 310-13). The test is described as follows: ELISA, plate coated with BAFF 1 ug/mL, HRP anti-human Fc, OD450. As for the experimental part:
as §1, with “BAFF” for “The capabilities of TACI-BCMA fusion proteins (B575701, B575702, B575703, and B575704) to bind to BAFF and APRIL were assessed by ELISA as follows: BAFF”, “310-13)” for “310-13) or ARPIL (Acro Biosystems, Cat: APL-H52D1)”, “plate” for “plate (Costar, Cat: 3590)”

T3 sequence (Q9Y275 134-285 limits assumed): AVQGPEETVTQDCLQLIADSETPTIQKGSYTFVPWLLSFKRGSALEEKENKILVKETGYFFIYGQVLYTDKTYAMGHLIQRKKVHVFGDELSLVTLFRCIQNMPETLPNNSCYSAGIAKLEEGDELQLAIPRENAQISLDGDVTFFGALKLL
T2 sequence (Q9Y275 134-285 limits assumed): as above

B1: B575704 (Fc fusion)
chain: MLQMAGQCSQNEYFDSLLHACIPCQLRCSSNTPPLTCQRYCNASVTNSVKGTNASRVDQEERFPQGLWTGVAMRSCPEEQYWDPLLGTCMSCKTICNHQSQRTCAAFCRSLSCRKEQGKFYDHLLRDCISCASICGQHPKQCAYFCENKLRSPVNLPPELDKTHTCPPCPAPEAEGAPSVFLFPPKPKDTLMISRTPEVTCVVVDVSHEDPEVKFNWYVDGVEVHNAKTKPREEQYNSTYRVVSVLTVLHQDWLNGKEYKCKVSNKALPSSIEKTISKAKGQPREPQVYTLPPSRDELTKNQVSLTCLVKGFYPSDIAVEWESNGQPENNYKTTPPVLDSDGSFFLYSKLTVDKSRWQQGNVFSCSVMHEALHNHYTQKSLSLSPGK
notes: TACI-BCMA fusion protein; also called BCMA-ECD-TACI-T2-Fc
In test [1], B1 had a half-maximal effective concentration (EC50) of 0.189 nM and an Emax of 2.68. Besides, in test [2], a half-maximal response (EC50) required 0.187 nM and the Emax is 2.29 nM (as printed). In test [3], the “EC50 relative to telitacicept” value was found to be 0.25 fold.

B2: TACI-11-Fc (Fc fusion)
chain: SLSCRKEQGKFYDHLLRDCISCASICGQHPKQCAYFCENDKTHTCPPCPAPEAEGAPSVFLFPPKPKDTLMISRTPEVTCVVVDVSHEDPEVKFNWYVDGVEVHNAKTKPREEQYNSTYRVVSVLTVLHQDWLNGKEYKCKVSNKALPSSIEKTISKAKGQPREPQVYTLPPSRDELTKNQVSLTCLVKGFYPSDIAVEWESNGQPENNYKTTPPVLDSDGSFFLYSKLTVDKSRWQQGNVFSCSVMHEALHNHYTQKSLSLSPGK
For B2, the IC50 in test [4] stood at 2.62 nM. This molecule registered a half-maximal effective concentration (EC50) in test [5] of 0.584 nM.

B3: TACI-12-Fc (Fc fusion)
chain: SLSCRKEQGKFYDHLLRDCISCASICGQHPKQCAYFCEDKTHTCPPCPAPEAEGAPSVFLFPPKPKDTLMISRTPEVTCVVVDVSHEDPEVKFNWYVDGVEVHNAKTKPREEQYNSTYRVVSVLTVLHQDWLNGKEYKCKVSNKALPSSIEKTISKAKGQPREPQVYTLPPSRDELTKNQVSLTCLVKGFYPSDIAVEWESNGQPENNYKTTPPVLDSDGSFFLYSKLTVDKSRWQQGNVFSCSVMHEALHNHYTQKSLSLSPGK
notes: TACI-9 truncated C-terminally by 3 amino acids, fused directly to Fc
B3: the IC50 in test [4] was 3.86 nM. Also, the EC50 in test [5] stood at 0.894 nM.

B4: B575701 (Fc fusion)
chain: LSCRKEQGKFYDHLLRDCISCASICGQHPKQCAYFCENKLRSPGMLQMAGQCSQNEYFDSLLHACIPCQLRCSSNTPPLTCQRYCNASVTNSVKGTNADKTHTCPPCPAPEAEGAPSVFLFPPKPKDTLMISRTPEVTCVVVDVSHEDPEVKFNWYVDGVEVHNAKTKPREEQYNSTYRVVSVLTVLHQDWLNGKEYKCKVSNKALPSSIEKTISKAKGQPREPQVYTLPPSRDELTKNQVSLTCLVKGFYPSDIAVEWESNGQPENNYKTTPPVLDSDGSFFLYSKLTVDKSRWQQGNVFSCSVMHEALHNHYTQKSLSLSPGK
notes: TACI-BCMA fusion protein; also called TACI-d2-BCMA-ECD-Fc
Consider B4, for which the figures for the EC50 in test [1] and in test [2] were 0.205 nM and 0.324 nM, respectively. Moreover, the Emax in test [1] is 2.69; in test [2], 2.31 nM (as printed). For the same molecule, the “EC50 relative to telitacicept” value in test [3] was found to be 0.5 fold.

B5: Atacicept (Fc fusion)
chain: AMRSCPEEQYWDPLLGTCMSCKTICNHQSQRTCAAFCRSLSCRKEQGKFYDHLLRDCISCASICGQHPKQCAYFCENKLRSEPKSSDKTHTCPPCPAPEAEGAPSVFLFPPKPKDTLMISRTPEVTCVVVDVSHEDPEVKFNWYVDGVEVHNAKTKPREEQYNSTYRVVSVLTVLHQDWLNGKEYKCKVSNKALPSSIEKTISKAKGQPREPQVYTLPPSRDELTKNQVSLTCLVKGFYPSDIAVEWESNGQPENNYKTTPPVLDSDGSFFLYSKLTVDKSRWQQGNVFSCSVMHEALHNHYTQKSLSLSPGK
As to B5, in test [6], the “EC50 (read off the curve)” value was around 0.3 nM.

B6: TACI-10-Fc (Fc fusion)
chain: SLSCRKEQGKFYDHLLRDCISCASICGQHPKQCAYFCENKDKTHTCPPCPAPEAEGAPSVFLFPPKPKDTLMISRTPEVTCVVVDVSHEDPEVKFNWYVDGVEVHNAKTKPREEQYNSTYRVVSVLTVLHQDWLNGKEYKCKVSNKALPSSIEKTISKAKGQPREPQVYTLPPSRDELTKNQVSLTCLVKGFYPSDIAVEWESNGQPENNYKTTPPVLDSDGSFFLYSKLTVDKSRWQQGNVFSCSVMHEALHNHYTQKSLSLSPGK
notes: TACI-9 truncated C-terminally by 1 amino acid, fused directly to Fc
Consider B6, for which the IC50 in test [4] came to 2.7 nM. In addition, the EC50 in test [5] worked out at 0.561 nM.
